{
  "source": "patent US20150225704",
  "biological_target": "myc-tagged full-length palmitoyl acyl transferase zinc-finger DHHC type containing 17 (zD17) (UniProt Q8IUH5)",
  "sequence (Q8IUH5 whole entry)": "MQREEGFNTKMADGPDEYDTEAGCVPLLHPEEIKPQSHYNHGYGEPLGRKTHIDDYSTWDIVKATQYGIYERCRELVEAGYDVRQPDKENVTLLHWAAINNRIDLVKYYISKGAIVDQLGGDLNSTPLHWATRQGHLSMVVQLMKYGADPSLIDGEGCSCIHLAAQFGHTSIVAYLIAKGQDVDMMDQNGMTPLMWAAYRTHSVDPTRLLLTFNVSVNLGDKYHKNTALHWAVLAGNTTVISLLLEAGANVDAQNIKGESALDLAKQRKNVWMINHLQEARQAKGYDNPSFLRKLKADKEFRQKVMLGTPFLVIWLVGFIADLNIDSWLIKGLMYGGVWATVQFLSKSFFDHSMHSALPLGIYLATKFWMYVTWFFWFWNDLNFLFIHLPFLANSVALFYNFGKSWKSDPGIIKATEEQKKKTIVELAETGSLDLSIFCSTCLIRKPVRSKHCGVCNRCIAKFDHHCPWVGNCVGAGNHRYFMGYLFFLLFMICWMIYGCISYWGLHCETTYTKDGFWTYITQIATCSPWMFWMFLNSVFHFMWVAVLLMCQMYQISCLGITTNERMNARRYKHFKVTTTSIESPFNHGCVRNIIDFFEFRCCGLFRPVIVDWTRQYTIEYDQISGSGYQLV",
  "data": [
    {"substance": "FLAG-kiMKK7 (kinase-inactive MKK7)", "values": [
      {"measurement": "JNK3 phosphorylation", "value": "resulting in attenuated JNK3 phosphorylation"}
    ]}
  ]
}
